Measured values from the supplement of paper PMC10598134.
± gives the standard deviation.

Test: collision cross section of modified peptide (TIMS, N2, iRT-aligned); higher = larger / more extended gas-phase ion
Outline: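 On a timsTOF Pro/HT (dda-PASEF, nitrogen, ~2.4 mbar), synthetic peptide pools were analysed after a 120-min nanoflow C18 separation at 60 °C and identified in MaxQuant. Three reference ions served for 1/K0 calibration, with run-wise alignment to the median iRT peptide deviation. Collision cross section comes from the Mason-Schamp equation, using the most abundant feature per charge state averaged over 1–3 technical replicates.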

[1] = charge state: 2, modification: Citrullination (R)
[2] = charge state: 2, modification: Methyl (R)
[3] = charge state: 3, modification: HexNAc (ST)
[4] = charge state: 3, modification: Methyl (R)
[5] = charge state: 2, modification: HexNAc (ST)
[6] = charge state: 2, modification: Acetyl (K)
[7] = charge state: 2, modification: Biotin
[8] = charge state: 2, modification: Butyryl
[9] = charge state: 2, modification: Crotonyl
[10] = charge state: 2, modification: Formyl
[11] = charge state: 2, modification: Glutarylation
[12] = charge state: 2, modification: GlyGly (K)
[13] = charge state: 3, modification: GlyGly (K)
[14] = charge state: 2, modification: Malonyl

With “RGGFAVQAK [_R(Citrullination (R))GGFAVQAK_]” the collision cross section [1] was 326.29 ± 0.63 Å².

With RGGFAVQAK [_R(Methyl (R))GGFAVQAK_] the collision cross section [2] was 338.01 ± 1.4 Å².

With RGPPGAK [_RGPP(Hydroxyproline)GAK_] the collision cross section (charge state: 2, modification: Hydroxyproline) was 303.1 ± 0.0067 Å².

With “RGVGAGAIAK [_R(Citrullination (R))GVGAGAIAK_]” the collision cross section [1] was 319.31 Å².

RGVGAGAIAK [_R(Methyl (R))GVGAGAIAK_] showed a collision cross section [2] of 328.76 ± 0.75 Å².

With “RLDINTNTYTSQDLK [_RLDINTNTYTS(HexNAc (ST))QDLK_]” the collision cross section [3] was 511.61 ± 0.96 Å².

“RLPNVHGR [_R(Citrullination (R))LPNVHGR_]” showed a collision cross section [1] of 340.93 ± 1.6 Å² and a collision cross section (charge state: 3, modification: Citrullination (R)) of 417.11 ± 3.5 Å².

RLPNVHGR [_R(Methyl (R))LPNVHGR_] gave a collision cross section [2] of 332.28 ± 1.8 Å² and a collision cross section [4] of 421.48 ± 3.9 Å².

Substance “RLPTTGYLVYR [_R(Citrullination (R))LPTTGYLVYR_]” has a collision cross section [1] of 383.11 ± 0.23 Å².

In the case of RLPTTGYLVYR [_R(Methyl (R))LPTTGYLVYR_], the collision cross section [2] is reported as 391.98 Å² and the collision cross section [4] is reported as 476.6 ± 3.2 Å².

Work on “SAGSVESPSVSSTHR [_SAGSVESPSVS(HexNAc (ST))STHR_]” yielded a collision cross section [5] of 412.88 ± 0.14 Å².

In the case of “SAGSVESPSVSSTHR [_SAGSVESPSVSST(HexNAc (ST))HR_]”, the collision cross section [3] is reported as 473.17 ± 1.2 Å².

In the case of “SALAAAQTQVAEYK [_S(HexNAc (ST))ALAAAQTQVAEYK_]”, the collision cross section [5] is reported as 431.97 ± 0.62 Å².

Work on SDDESSQKDIK [_SDDESSQK(Acetyl (K))DIK_] yielded a collision cross section [6] of 374.03 ± 0.38 Å².

SDDESSQKDIK [_SDDESSQK(Biotin)DIK_] gave a collision cross section [7] of 393.46 Å².

With SDDESSQKDIK [_SDDESSQK(Butyryl)DIK_] the collision cross section [8] was 378.95 ± 0.72 Å².

Work on SDDESSQKDIK [_SDDESSQK(Crotonyl)DIK_] yielded a collision cross section [9] of 379.43 ± 0.8 Å².

For “SDDESSQKDIK [_SDDESSQK(Dimethyl (K))DIK_]”, the collision cross section (charge state: 2, modification: Dimethyl (K)) was 372.77 ± 1.2 Å² and the collision cross section (charge state: 3, modification: Dimethyl (K)) was 434.93 ± 2.1 Å².

Work on SDDESSQKDIK [_SDDESSQK(Formyl)DIK_] yielded a collision cross section [10] of 368.14 ± 1.1 Å².

In the case of “SDDESSQKDIK [_SDDESSQK(Gluratylation)DIK_]”, the collision cross section [11] is reported as 382.21 ± 1.1 Å².

SDDESSQKDIK [_SDDESSQK(GlyGly (K))DIK_] gave a collision cross section [12] of 380.21 ± 0.89 Å² and a collision cross section [13] of 442.7 ± 0.74 Å².

SDDESSQKDIK [_SDDESSQK(Malonyl)DIK_] showed a collision cross section [14] of 372.43 ± 0.63 Å².

For SDDESSQKDIK [_SDDESSQK(Methyl (K))DIK_], the collision cross section (charge state: 2, modification: Methyl (K)) was 375.97 ± 0.26 Å² and the collision cross section (charge state: 3, modification: Methyl (K)) was 439.66 ± 3.3 Å².

SDDESSQKDIK [_SDDESSQK(Propionyl)DIK_] showed a collision cross section (charge state: 2, modification: Propionyl) of 377.44 ± 0.33 Å².

SDDESSQKDIK [_SDDESSQK(Succinyl)DIK_] showed a collision cross section (charge state: 2, modification: Succinyl) of 378.1 ± 1 Å².

In the case of “SDDESSQKDIK [_SDDESSQK(Trimethyl (K))DIK_]”, the collision cross section (charge state: 2, modification: Trimethyl (K)) is reported as 380.2 ± 1.7 Å² and the collision cross section (charge state: 3, modification: Trimethyl (K)) is reported as 430.76 ± 2.7 Å².

With “SDDESSQKDIK [_SDDESSQK(hydroxyisobutyryl)DIK_]” the collision cross section (charge state: 2, modification: hydroxyisobutyryl) was 383.53 ± 0.55 Å².

Work on “SDSGKPYYYNSQTK [_SDSGK(Acetyl (K))PYYYNSQTK_]” yielded a collision cross section [6] of 419.63 ± 2 Å².

Substance “SDSGKPYYYNSQTK [_SDSGK(Biotin)PYYYNSQTK_]” has a collision cross section [7] of 440.01 ± 0.23 Å².

In the case of “SDSGKPYYYNSQTK [_SDSGK(Butyryl)PYYYNSQTK_]”, the collision cross section [8] is reported as 426.68 ± 0.77 Å².

For “SDSGKPYYYNSQTK [_SDSGK(Crotonyl)PYYYNSQTK_]”, the collision cross section [9] was 425.72 ± 0.29 Å².

Work on “SDSGKPYYYNSQTK [_SDSGK(Formyl)PYYYNSQTK_]” yielded a collision cross section [10] of 417.77 ± 0.18 Å².

With “SDSGKPYYYNSQTK [_SDSGK(Gluratylation)PYYYNSQTK_]” the collision cross section [11] was 430.3 ± 1.5 Å² and the collision cross section (charge state: 3, modification: Glutarylation) was 493.09 Å².

Work on “SDSGKPYYYNSQTK [_SDSGK(GlyGly (K))PYYYNSQTK_]” yielded a collision cross section [12] of 428.35 ± 1.4 Å² and a collision cross section [13] of 476.2 ± 1.7 Å².

Substance “SDSGKPYYYNSQTK [_SDSGK(Malonyl)PYYYNSQTK_]” has a collision cross section [14] of 422.4 ± 0.57 Å².
